Experimental findings from the nanobody polyreactivity screen of Harvey et al. (2022) are described below.

This data set can be described thus: yeast display, Sf9 membrane polyspecificity reagent, FACS + sequencing; frameworks hold sequencing errors. In short, it runs like this:
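Using colony PCR, genes from sorted yeast display clones were amplified, then sequenced on MiSeq at 2 × 250 and filtered by CDR length. The clones had been stained with 10% biotinylated, detergent-solubilized Sf9 membrane reagent for 1 hour at 4 °C and sorted by FACS into low and high (top ~1%) gates on anti-HA and streptavidin fluorescence. Polyreactivity labels come from the gate of origin.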
With “QVQLVESGGGLVQAGGSLRLSCAASGSTLVFYAMGWYRQAPGKERELVAAIDSDGGTYYADSVKGRFTISRDNAKNTVYLQMNSLKPEDTAVYYCNAAGALIFGEGYYVEYDYDYWGQGTQVTVSS”, the “polyreactivity (PSR sort gate)” value is listed as “low polyreactivity”. Then “QVQLVESGGGLVQAGGSLRLSCAASGSIFRSYAMGWYRQAPGKERELVAAISGRGSNTYYADSVKGRFTISRDNAKNTVYLQMNSLKPEDTAVYYCATRQWVFSHGYWGQGTQVTVSS”, with “high polyreactivity”.

Take “QVHLVESGGGLVQAGGSLRLSCAASGSTFTPYAMGWYRQAPGKERELVAAITWRTGSTRYADSVKGRFTISRDNAKNTVYLQMNSLKPEDTAVYYCAAKVPRFGAPGVNYWGQGTQVTVSS”: the “polyreactivity (PSR sort gate)” value is on record as “high polyreactivity”. With “QVQLVESGGGLVQAGGSHRLSCAASGSIFWSYAMGWYRQAPGKARELVASISRRGGSTSYADSVKGRFTISRDNAKNTVYLQMNSLKPEDTAVYYCNAYGRQNHYYWGQGTQVTVSS”, the “polyreactivity (PSR sort gate)” value is listed as “high polyreactivity”. Regarding “QVQLVESGRGLFQAGGSLRLSCAASGSTFYTNAMVWYRQAPGKEWELVATITSSGGITSYADSVKGRFTISRDNAKITVYLHMNSLKPEDTAVYYCAADFGASYDTHEYGYWGQGTQVTVSS”, the “polyreactivity (PSR sort gate)” value is listed as “low polyreactivity”. Consider “QVQLVESGGGLVQAGGSLRLSCAASGSTFNRNTMGWYRQAPGKERELVAAITSSGGRTYYADSVKGRFTISRDNAKNTVFLQVNSLKPEDTAVYYCATVNRVLIAGRFDSWGQGTQVTVSS”, for which the “polyreactivity (PSR sort gate)” value is on record as “high polyreactivity”. As for “QVQLVESGGGLVQAGGSLRLSCAASGITFTWYAMGWYRQAPGKERELVAAISGGGSTYYVDSVKGRFTISRDNAKNTVYLQMNSLKPEDTAVYYCAARYSWTRRTMYYWGQGTQVTVSS”, the “polyreactivity (PSR sort gate)” value is “high polyreactivity”.

Regarding “QVQLVESGGGLVQAGGSLRLSCAASGIIIDYYTMGWYRQAPGKERELVAAINKSGGSTYADSVKGRFTISRDNAKNTVYLQMNSLKPEDNAVYYCAAEVDYSYWPEYARKYYYWGQGTQVTVSS”, the “polyreactivity (PSR sort gate)” value is on record as “low polyreactivity”. Then “QVQLVESGGGLVEAGGSLRLSCAASGGIFPVNAIGWYRQAPGKERELVATITYDGANTYYADSVKGRFTISRDNAKNTVYLQMNRLKPEDTAVYYCAKDRLSFYGYISYIGYGYDYWGQGTQVTVSS”, with “low polyreactivity”; and “QVQLVESGGGLVQAGGSLRLSCAASGFTFGNNGMGWYRQAPGKERELVATISWSGGSTYADSVKGRFTISRDNAKNTVYLQMNSLKPEDTAVYYCAAPYLSLYWYDYWGQGTQVTVSS”, with “low polyreactivity”. Then “QVQLVESGGGLVQAGGSLRLSCAASGSTFPYNAMGWYRQAPGKDRELVAAITWRAGRTYYADSVKGRFTISRDNAKNTVYLQMNSLKPEDTAVYYCAKSYQRGVNHYEYWGQGTQVTVSS”, with “high polyreactivity”. The same measure for “QVQLVESGGGLVQAGGSLRLICAASGFIFKWNAMGWYRQAPGKERELVAAITSGGGTYYADSVKGRFTISRDNAKNTVYLQMNSLKPEDTAVYYCAALGRYWPARRFDYWGQGTQVTVSS”: “high polyreactivity”; for “QVQLVESGGGLVQAGGSLRLSCPASGRIFYRYAMGWYRQEPGKERELVADITWRGGRTYYADSVKGRFTISRDNAKNTVYLQMNSLKPEDTAVYYCAATGGFSWSRDYWGQGTQVTVSS”: “low polyreactivity”. Consider “QVQLVESGGGLVQAGGSLRLSCAASGFTFARNAMGWYRQAPGKERELVASITSGGSTNYADSVKGRFTISRDNAKNTVYLQMNSVKPEDSAVYYCNALWWAPGRPGEEIYRILDYWGQGTQVTVSS”, for which the “polyreactivity (PSR sort gate)” value is recorded as “low polyreactivity”. Then “QVQLVESGGGLVQAGGSLRLSCAASGRTIRVNAMGWYRQAPRKERELVAAISRSTGDTYYADSVKGRFTNSRDNAKNTVYLQMHSLKPEDTAVYYCAADVPGGEGDYAYEYWGQGTQVNVSS”, with “low polyreactivity”; and “QVQLVESGGGLVQAGGSLRLSCAASGRTFYYYGMGWYRQAPGKERELVATISWSGGSTYYADSVKGRFTISRDNAKNTVYLQMNSLKPEDTAVYYSAADGQFLYDHIEVDYWGQATQVTVSS”, with “low polyreactivity”; and “QVQHVDSGGGLVQAGGSLRLSCAASGSTFGYNAMGWYRQAPGKERELVAAITFSGDSTSYADSVKGRFTISRDNAKNSVYLQMNSLKPEDTAVYYCAVDTWNGDGSGYSLEFEYWGQGTQVTVSS”, with “low polyreactivity”. On to “QVQLVESGGGLVQAGGSLRLSCAASGRIFTGNVMGWYRQAPGKERELVAAISRRGGGTYYADSVKGRFTISRDNAKNTVYLQMNSLKPEDTAVYYCAAQYRSQGQPKGGVLYYYWGQGTQVTVSS”, for which the “polyreactivity (PSR sort gate)” value is “high polyreactivity”. The same measure for “QVQLVESGGGLVQAGGSLRLSCAASGRIFSLNAMGWYRQAPGKERELVAGIRKRGGSTYYADSVKGRFTISRDNAKNTVYLQMNSLKPEHTAVYYCAAQPALTYRFYYWGQGTQVTVSS”: “high polyreactivity”; for “QVQLVESVGGLVQAGCILRLSCAPSGRIFGVNAMGWYRQAPGKVRELVAAIDWSDGSTYYADSVKGRFTISRDNAKNTVYLQMNSLKPEDTAVYYCAALPSYLAAQYGDDYWGQGTQVTVSS”: “low polyreactivity”. Then “QVQHVESGGGLVQAGGSLRLSCAASGFTFLKNAMGWYRQAPGKERELVAAITSSGGRTYYADSVKGRFTISRDNAKNTVYCQMISLKPEDTAVYYCNKGPLPGYDYWGQGTQVTVSS”, with “high polyreactivity”; and “QVQLVESGGRLVQAGGSLRLSCAASGITQGYYAMGWYRQAPGKERELVAAISYRGGNTYYADSVKGRFTISRDNAKNTVYLQMNSLKPEDTAVYYCNADLGYESGWWSKYDYWGQGTQVTVSS”, with “low polyreactivity”. The same measure for “QVQLVESGGRLVQAGGSLRLSCAASGRIFGDYAMGRYRQAPGKERDLVAAISWSDGSTYYADSVKGRFTISRDNAKNTVYLQMNSLTPEDTAVYYCPAYGWGYRYVDVVVSDFYYWGQGTQVTVSS”: “low polyreactivity”; for “QVQLVESAGGLVQAGGSLRLSCAASGRIFYGNAMGWYRQAPGKERELVAAISKRGGSTHYAASVKGRFTISRDNAKNTVYLQMNSLKPEDTAVYYCATDSYYVGAVHYYYWGQGTQVTVSS”: “high polyreactivity”; for “QVQLVESGGGLVQAGGSLRLSCAASGRTFGYYAMGWYIQAPGKERELVAAISGSGGSTYYADSVKGRFTISRDNAKNTVYLQMNSLKPEDTEVYYCAARYIYYYAFGYNYWGQGTQVTVSS”: “high polyreactivity”. “QVQLVESGGGLVQAGGSLRLSCAASGYTLRIYAMGWYRQAPGKERELVAAISRSGGRTFYADSVKGRFTISRDNAKNTVYLQMISLTPEDTAVFYCAAVSAYYYRRTYEYWGQGTQVTVSS”: the “polyreactivity (PSR sort gate)” value is “high polyreactivity”. Then “QVQLVESGGGLVQAGGSLRLSCAASGITFQNYAMGWYRQAPGKERELVAGISYSGGSTYYADSVKGRFTISRDHAKNTVFLLMNSLKPEDTAVYDCAATRWYSYRRYYYWGQGTQVTVSS”, with “high polyreactivity”; and “QVQHVESGGGLVQAGGSLSLRCAASGSTLPYYAMGGYRPAPGKEREFVAAISSSGGSTYYADSVKGRFTISRDNAKYTVYLQMNSLKPEDTAVYYCNAVLYARQRDRWARYDYWGQGTQVTVSS”, with “high polyreactivity”. Then “QVQLVESGGGLVQAGGSLRLSCAASGRISVFNAMGWYRQAPGKERELVATITDGGSTYYADSVKGRFTISRDNAKNSVYLQMNSLKPEDTAVYYCAKKQVTTDVSSETFVLEMDYLGQGTQVTVSS”, with “low polyreactivity”. The same measure for “QVHVVESGGGLVQAGGSLRLSCAASGSSFYHYAMGWYRQAPGKERELVAAISGSGGSTYYADSVKGRFTISRDNAKNTVYLQMNSLKPEDTAVYYCAADTSRYHYTRYFFDSDYWGQGTQVTVSS”: “low polyreactivity”; for “QVQLVESGGGLVQAGCSLRLSCAASGRTFSSYAMGWYRQSPGKERELVAAINRGGGSTYYADSVKGRFTISRDNAKNTVYLQMNSLKPEDTAVYYCNARSKRTYEYDYWGQGTQVTVSS”: “high polyreactivity”.

For the sequence “QVQLVESGGGLVQSGGSLRLSCAASGRTIGAYAMGWYRQAPGKEREFVAAITFGGGPTYYADSVKGRFTISRDNAKNTVYLQMNSLKPEDTAVYYCAKRIDLSFPFARYDYWGQGTQVTVSS”, the “polyreactivity (PSR sort gate)” value is “low polyreactivity”. Consider “QVQLVESGGGLVQAGGSLRLSCAASGFTSGNYAMGWYRQAPGKEREFVAAITWGDGSTFYADSVKGRFTISRDNAKNTVYLQMNSLKPEDTAVYYCAADYSRTYRAYDYWGQGTQVTVSS”, for which the “polyreactivity (PSR sort gate)” value is “low polyreactivity”. In the case of “QVQLVESGGGLVQAGGSLRLSCAASGITFVRNAMGWYRQAPGKEREFVAAISWSGGSTYYADSVKGRFTISRDNAKNTVYLQMNSLKPEDTAVYYCAKRSRGVKYDYWGQGTQVTVSS”, the “polyreactivity (PSR sort gate)” value is “high polyreactivity”. Then “QVQLVESGGGLVQAGGSLRLSCAASGFSFRGYAMGWYRQAPGKERELVAAINYSGGSTYYADSVKGRFTISRDNAKNTVYLQMNSLKPEDTAVYYCAAGKRGDDDYWGQGTQVTVSS”, with “high polyreactivity”. As to “QVQLVESGGGLVQAGGSLRLSCAASGLILPDYAMGWYRQAPGKERELVAAISESAASTYYADSVKGRFTISRDNAKNTVYLQMNSLKPEDTAVYYCAAEVWCYSWYYWYYDGEYYWGQGTQVTVSS”, the “polyreactivity (PSR sort gate)” value was “high polyreactivity”. Then “HVQLVESGGGLVQAGGSLRLSCAASGSTFYNNAMGWTRQAPGKERELVAAITSSVGSTQYADSVKGRFTISRDKAKNTVYLPMNSLKPADTAVYYCAATFGYGRYGYWGQGTQVTVSS”, with “low polyreactivity”. Turning to “QVQLVESGGGLVQAGGSLRLSCAASGRIFKVYAMGWYRQAHGKEREMVAAITSRGGSTYYADSVKGRFTISRDNSKNTVYLQMNSLKPEDTAVYYCAAARGLPSNKYYYWGQGTQVTVSS”, the “polyreactivity (PSR sort gate)” value was “high polyreactivity”. Turning to “QVQLVESGGGLVQAGGSQRLSCAASGRTFRGNAMGWYRQAPGKERELVATINSGGSTNYADSVKGRFTISRDKAKNTVYLQMNSLIPEDTAVYYCAAVKYFRWKYNYWGQGTQVTVSS”, the “polyreactivity (PSR sort gate)” value is recorded as “high polyreactivity”. Then “QVQLVESGGGLVQAGGSLRISCAASGRTFFHYAMGWYRQAPGKERELVAGITSGGRTKYADSVKGRFTISRDNAKKTVYLQKNSMKPEDTAVYVCAASYIVWLTRGSPRKLFDYWGQGSQVTVSS”, with “high polyreactivity”.
